Measured values reported in US20240124590A1 (ULTRAHUMAN EIGHT, published 2024).
Where a chain is given by its changes, count along the chain named. Blank lines part the entries; values can stand above or below the binder they belong to.

Columns and labels:
[1] = target: T1, recombinant ectodomain of human VEGFR2 (human, UniProt P35968 20-764); test: direct ELISA
T1 construct: whole entry named

[2] = target: T2, recombinant ectodomain of rhesus VEGFR2 (rhesus); test: direct ELISA
T2 construct: whole entry named
T2 chain: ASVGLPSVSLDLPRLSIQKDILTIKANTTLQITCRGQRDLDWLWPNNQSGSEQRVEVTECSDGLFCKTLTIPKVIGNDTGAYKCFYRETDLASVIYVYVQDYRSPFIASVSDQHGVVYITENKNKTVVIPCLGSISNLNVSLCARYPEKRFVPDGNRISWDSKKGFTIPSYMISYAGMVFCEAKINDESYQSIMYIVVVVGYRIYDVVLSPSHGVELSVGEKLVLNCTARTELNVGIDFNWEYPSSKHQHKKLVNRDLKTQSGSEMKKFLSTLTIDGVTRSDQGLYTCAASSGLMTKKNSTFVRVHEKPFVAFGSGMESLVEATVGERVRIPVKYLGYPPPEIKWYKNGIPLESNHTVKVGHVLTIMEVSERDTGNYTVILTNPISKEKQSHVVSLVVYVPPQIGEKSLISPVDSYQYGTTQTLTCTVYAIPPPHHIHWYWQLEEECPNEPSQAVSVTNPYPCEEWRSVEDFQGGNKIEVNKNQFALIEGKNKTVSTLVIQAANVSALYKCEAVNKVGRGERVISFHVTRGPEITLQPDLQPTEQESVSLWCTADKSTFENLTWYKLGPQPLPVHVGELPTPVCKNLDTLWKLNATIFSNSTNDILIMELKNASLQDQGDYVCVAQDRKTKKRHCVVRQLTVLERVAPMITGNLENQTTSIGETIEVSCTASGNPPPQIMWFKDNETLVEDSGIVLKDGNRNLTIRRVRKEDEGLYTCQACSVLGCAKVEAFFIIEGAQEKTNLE

BSA protein = target: T3, BSA protein (UniProt P02769 25-607); test: direct ELISA
T3 construct: Negative-control coat of the ELISA

[3] = target: T4, human PD1 expressed on cells (human, UniProt Q15116 25-288); test: flow cytometry, PD1 CHO-K1 cells
T4 construct: also called human PD1+ CHO cells; PD1-transfected HEK293 cells
Procedure: (§1) Purified IgGs were tested in FACs for binding to human and cyno PD1 expressed on CHO-K1 stable cell lines and CHO-K1 wild-type cells. […] Binding of IgGs was detected with a mouse anti-human IgG conjugated to FITC. Results were analyzed by examining the Mean Fluorescence Intensity (MFI) of 10000 cells per sample in the BL-1 channel detector of a flow cytometer (Attune™ NxT Acoustic Focusing Cytometer, Invitrogen/ThermoFisher Scientific).
(§2) Antibodies to PD1 were analysed for concentration-dependent binding at the cell surface via flow cytometry. Initial analyses were performed on CHO cells stably-transfected with human or cyno PD1.

[4] = target: T5, cyno PD1 expressed on CHO-K1 cells (cynomolgus monkey, UniProt Q15116 25-288 (human entry)); test: flow cytometry, PD1 CHO-K1 cells
T5 construct: also called cyno PD1+ CHO cells
T5 chain: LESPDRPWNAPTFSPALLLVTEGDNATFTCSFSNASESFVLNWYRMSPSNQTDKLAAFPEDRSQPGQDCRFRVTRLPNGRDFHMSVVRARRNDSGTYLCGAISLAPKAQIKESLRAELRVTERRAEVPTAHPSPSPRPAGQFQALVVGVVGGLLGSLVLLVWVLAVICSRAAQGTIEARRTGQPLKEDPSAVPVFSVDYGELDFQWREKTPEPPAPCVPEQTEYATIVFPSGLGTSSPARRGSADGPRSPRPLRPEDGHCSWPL
Procedure: as §1, §2

[5] = target: T6, human FZD5 (frizzled class receptor 5) on transfected HEK293 cells (human, UniProt Q13467 27-585); test: cell microarray re-array, transfected HEK293
T6 construct: also called FZDS; FZ5
Procedure: (§3) Antibody binding was detected using AF647 fluorescent secondary anti-human IgG1 antibody. Primary hits (duplicate spots) were identified by analysing fluorescence (AF647 and ZsGreen1) on ImageQuant. Vectors encoding all hits were sequenced to confirm their correct identities. […] Slides were analysed as above. Flow cytometry confirmation screen: Expression vectors encoding ZsGreen1 only, or ZsGreen1 and PD1, FZDS, KDR or ULBP2, were transfected into human HEK293 cells. Each live transfectant was incubated with […] of each of the test antibodies and the Isotype control antibody. Cells were washed, and incubated with the same AF647 anti-human IgG Fc detection antibody as used in the cell microarray screens. Cells were again washed, and analysed by flow cytometry using an Accuri flow cytometer (BD). A 7AAD live/dead dye was used to exclude dead cells, and ZsGreen1-positive cells (i.e. transfected cells) were selected for analyses.

[6] = target: T7, human KDR (VEGFR2) on cells (human, UniProt P35968 20-1356); test: cell microarray re-array, transfected HEK293
T7 construct: Transfected HEK293 cells (arrays, flow cytometry) and human VEGFR2 reporter cells
Procedure: as §3

[7] = target: T8, human ULBP2 (UL16 binding protein 2) on transfected HEK293 cells (human, UniProt Q9BZM5 26-217); test: cell microarray re-array, transfected HEK293
T8 sequence: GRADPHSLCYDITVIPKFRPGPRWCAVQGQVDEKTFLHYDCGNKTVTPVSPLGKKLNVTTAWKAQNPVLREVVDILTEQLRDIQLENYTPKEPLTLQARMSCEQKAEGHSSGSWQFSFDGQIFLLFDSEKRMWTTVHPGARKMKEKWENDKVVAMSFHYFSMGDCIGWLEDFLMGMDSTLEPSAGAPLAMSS
Procedure: as §3

[8] = target: T9, biotinylated human PD1-His/AviTag (human, UniProt Q15116 25-170, limits assumed, biotinylated); test: Alphascreen competition vs IgG1-Mab005 (humanized)
T9 construct: Alphascreen antigen; whole entry named; also called biotinylated monomeric human PD1; not shown: His/AviTag
Procedure: The AlphaScreen assay (Perkin Elmer) was performed in a 25 μl final volume in 384-well white microtiter plates (Greiner). The reaction buffer contained 1×PBS pH 7.3 (Oxoid, Cat. nr. BRO014G) and 0.05% (v/v) Tween® 20 (Sigma, Cat. nr. P9416). Purified IgG samples were titrated in three fold serial dilutions starting at 500 nM final concentration and incubated with biotinylated human PD1-His/AviTag at 0.6 nM final concentration for 20 minutes at room temperature. […] Followed by addition of the Streptavidin Donor beads at 20 μg/ml (final concentration) and incubation for 30 minutes at room temperature. The emission of light was measured in the EnVision multilabel plate reader (Perkin Elmer) and analysed using the EnVision manager software. Values were reported as Counts Per Second (CPS) and corrected for crosstalk.

T3 sequence (P02769 25-607 limits assumed): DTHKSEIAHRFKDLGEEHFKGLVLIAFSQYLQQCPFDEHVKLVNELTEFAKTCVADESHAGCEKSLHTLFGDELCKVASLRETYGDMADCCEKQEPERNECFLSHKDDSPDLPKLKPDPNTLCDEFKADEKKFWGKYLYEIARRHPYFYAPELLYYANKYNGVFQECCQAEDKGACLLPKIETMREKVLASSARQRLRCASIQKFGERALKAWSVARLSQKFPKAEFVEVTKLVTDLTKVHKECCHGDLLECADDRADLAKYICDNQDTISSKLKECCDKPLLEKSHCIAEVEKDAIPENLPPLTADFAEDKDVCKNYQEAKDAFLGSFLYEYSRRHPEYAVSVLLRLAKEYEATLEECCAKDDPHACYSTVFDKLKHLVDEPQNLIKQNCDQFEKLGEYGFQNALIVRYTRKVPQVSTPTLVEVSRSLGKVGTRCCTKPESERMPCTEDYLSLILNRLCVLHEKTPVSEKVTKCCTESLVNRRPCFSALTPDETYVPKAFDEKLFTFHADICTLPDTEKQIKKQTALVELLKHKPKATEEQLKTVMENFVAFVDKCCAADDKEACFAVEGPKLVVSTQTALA
T9 sequence (Q15116 25-170 limits assumed): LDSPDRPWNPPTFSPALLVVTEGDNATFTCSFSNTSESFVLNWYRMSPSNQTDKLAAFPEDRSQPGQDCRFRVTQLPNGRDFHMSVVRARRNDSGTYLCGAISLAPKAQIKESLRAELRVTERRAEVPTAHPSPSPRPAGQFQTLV
T7 sequence (P35968 20-1356 limits assumed): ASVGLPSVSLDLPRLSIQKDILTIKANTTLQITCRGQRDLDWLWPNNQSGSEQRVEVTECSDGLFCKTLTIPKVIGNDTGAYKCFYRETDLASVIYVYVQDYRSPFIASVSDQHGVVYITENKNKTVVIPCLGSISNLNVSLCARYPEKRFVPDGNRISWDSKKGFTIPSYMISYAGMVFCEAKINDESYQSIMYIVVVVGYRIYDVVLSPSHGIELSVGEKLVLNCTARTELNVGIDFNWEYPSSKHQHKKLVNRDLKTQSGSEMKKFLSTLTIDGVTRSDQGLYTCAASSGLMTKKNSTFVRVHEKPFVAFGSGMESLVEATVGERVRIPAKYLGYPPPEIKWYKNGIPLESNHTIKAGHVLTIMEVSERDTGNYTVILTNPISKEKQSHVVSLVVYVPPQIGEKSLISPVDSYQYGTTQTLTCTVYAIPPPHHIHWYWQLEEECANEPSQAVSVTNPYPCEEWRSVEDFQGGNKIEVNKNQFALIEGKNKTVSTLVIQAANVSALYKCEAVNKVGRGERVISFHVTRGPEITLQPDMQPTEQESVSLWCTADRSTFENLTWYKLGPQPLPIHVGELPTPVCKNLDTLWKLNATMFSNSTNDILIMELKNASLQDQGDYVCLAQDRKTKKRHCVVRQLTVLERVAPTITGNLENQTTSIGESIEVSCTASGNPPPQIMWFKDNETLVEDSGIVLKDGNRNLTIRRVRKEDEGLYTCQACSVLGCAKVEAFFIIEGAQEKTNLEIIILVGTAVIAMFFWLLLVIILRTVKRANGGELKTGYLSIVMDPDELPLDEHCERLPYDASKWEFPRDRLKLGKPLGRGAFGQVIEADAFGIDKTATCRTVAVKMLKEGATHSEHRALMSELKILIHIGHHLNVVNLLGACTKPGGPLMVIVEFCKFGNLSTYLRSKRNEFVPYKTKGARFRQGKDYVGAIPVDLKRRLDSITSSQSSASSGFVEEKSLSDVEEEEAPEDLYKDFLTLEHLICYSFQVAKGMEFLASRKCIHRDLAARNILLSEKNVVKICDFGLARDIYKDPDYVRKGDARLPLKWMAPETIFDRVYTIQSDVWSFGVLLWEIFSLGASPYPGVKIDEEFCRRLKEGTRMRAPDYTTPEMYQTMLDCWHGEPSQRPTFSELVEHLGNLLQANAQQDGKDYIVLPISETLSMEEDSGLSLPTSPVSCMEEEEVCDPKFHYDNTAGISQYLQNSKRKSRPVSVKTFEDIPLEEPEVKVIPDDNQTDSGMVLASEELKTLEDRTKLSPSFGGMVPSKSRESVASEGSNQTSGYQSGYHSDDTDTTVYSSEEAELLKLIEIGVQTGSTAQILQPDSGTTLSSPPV
T4 sequence (Q15116 25-288 limits assumed): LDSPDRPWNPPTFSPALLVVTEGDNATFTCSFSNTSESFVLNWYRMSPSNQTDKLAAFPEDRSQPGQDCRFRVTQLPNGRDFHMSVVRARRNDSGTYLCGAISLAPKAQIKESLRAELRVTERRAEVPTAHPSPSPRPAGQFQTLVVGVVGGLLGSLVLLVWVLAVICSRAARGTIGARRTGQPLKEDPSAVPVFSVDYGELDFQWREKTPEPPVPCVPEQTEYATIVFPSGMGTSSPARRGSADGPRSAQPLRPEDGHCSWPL

binding result [1]: no binding | binding result [2]: no binding | binding result (BSA protein): no binding | EC50 [3]: 1.55 nM | EC50 [4]: 2.03 nM | binding result [5]: no binding (tested: 5 µg/ml) | binding result [6]: no binding (tested: 5 µg/ml) | binding result [7]: no binding (tested: 5 µg/ml) | IC50 [8]: 2.36 nM
B1: IgG1-08 (antibody, V domains shown)
VH: EVQLVESGGGLVQPGGSLRLSCAASGFTFSSYLMSWVRQAPGKGLEWVATISGGGSEKYYVDSVKGRFTISRDNAKNSLYLQMNSLRAEDTAVYYCARQLYGFDYWGQGTLVTVSS
VL: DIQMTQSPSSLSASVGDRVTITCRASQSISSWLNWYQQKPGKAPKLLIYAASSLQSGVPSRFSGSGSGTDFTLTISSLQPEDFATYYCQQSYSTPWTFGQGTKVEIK
notes: Designer; human IgG1null + Ckappa; also called Antibody IgG1-08; MAB08

binding result [1]: no binding | binding result [2]: no binding | binding result (BSA protein): no binding | EC50 [3]: 1.66 nM | EC50 [4]: 2.52 nM | binding result [5]: no binding (tested: 5 µg/ml) | binding result [6]: no binding (tested: 5 µg/ml) | binding result [7]: no binding (tested: 5 µg/ml) | IC50 [8]: 1.66 nM
B2: IgG1-05 (antibody, V domains shown)
VH: B1 VH with L100V, G102Y
VL: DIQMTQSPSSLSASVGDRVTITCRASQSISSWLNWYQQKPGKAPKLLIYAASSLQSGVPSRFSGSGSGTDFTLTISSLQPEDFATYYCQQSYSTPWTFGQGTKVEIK
notes: Designer; human IgG1null + Ckappa; also called Antibody IgG1-05

binding result [1]: no binding | binding result [2]: no binding | binding result (BSA protein): no binding | EC50 [3]: 1.78 nM | EC50 [4]: 1.56 nM | binding result [5]: no binding (tested: 5 µg/ml) | binding result [6]: no binding (tested: 5 µg/ml) | binding result [7]: no binding (tested: 5 µg/ml) | IC50 [8]: 2.63 nM
B3: IgG1-06D02 (antibody, V domains shown)
VH: B1 VH with K58T
VL: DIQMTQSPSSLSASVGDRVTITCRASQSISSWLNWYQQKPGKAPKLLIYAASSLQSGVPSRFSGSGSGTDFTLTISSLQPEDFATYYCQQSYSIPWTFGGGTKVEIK
notes: Library-derived; human IgG1null + Ckappa; also called Clone 06D02
